Test results: PMC6800521 (RNA, 2019)

Target: MBP-Noc1/Noc2 complex (yeast, UniProt Q12176 1-1025; P39744 1-710)
Experiment: pull-down

Sequence of MBP-Noc1/Noc2 complex (Q12176 whole entry, chain 1 of 2): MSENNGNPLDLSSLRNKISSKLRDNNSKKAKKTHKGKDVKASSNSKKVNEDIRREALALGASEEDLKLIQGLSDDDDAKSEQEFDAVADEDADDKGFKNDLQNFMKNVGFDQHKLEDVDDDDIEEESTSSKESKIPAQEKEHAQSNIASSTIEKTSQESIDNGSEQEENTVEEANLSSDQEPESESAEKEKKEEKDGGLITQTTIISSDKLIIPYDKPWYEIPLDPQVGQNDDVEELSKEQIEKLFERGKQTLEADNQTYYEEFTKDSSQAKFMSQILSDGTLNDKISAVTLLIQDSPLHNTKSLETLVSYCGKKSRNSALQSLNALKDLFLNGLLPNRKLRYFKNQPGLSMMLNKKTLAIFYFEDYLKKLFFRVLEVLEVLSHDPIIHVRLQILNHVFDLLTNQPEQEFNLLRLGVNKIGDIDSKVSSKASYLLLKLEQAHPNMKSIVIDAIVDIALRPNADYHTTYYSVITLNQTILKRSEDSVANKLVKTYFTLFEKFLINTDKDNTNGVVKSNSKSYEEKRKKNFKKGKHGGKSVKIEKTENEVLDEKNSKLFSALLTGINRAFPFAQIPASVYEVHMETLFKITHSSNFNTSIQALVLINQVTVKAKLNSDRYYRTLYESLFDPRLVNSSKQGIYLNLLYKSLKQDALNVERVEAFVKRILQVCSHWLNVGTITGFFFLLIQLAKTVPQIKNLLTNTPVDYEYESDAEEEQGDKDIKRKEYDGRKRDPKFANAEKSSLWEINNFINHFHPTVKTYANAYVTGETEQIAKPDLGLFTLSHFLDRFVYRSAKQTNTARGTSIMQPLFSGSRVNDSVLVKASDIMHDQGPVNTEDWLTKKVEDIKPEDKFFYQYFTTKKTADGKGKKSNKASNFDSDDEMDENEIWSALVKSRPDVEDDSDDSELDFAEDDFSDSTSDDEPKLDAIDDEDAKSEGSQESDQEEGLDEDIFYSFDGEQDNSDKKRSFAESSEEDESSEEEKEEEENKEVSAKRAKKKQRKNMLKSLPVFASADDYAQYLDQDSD
Sequence of MBP-Noc1/Noc2 complex (P39744 whole entry, chain 2 of 2): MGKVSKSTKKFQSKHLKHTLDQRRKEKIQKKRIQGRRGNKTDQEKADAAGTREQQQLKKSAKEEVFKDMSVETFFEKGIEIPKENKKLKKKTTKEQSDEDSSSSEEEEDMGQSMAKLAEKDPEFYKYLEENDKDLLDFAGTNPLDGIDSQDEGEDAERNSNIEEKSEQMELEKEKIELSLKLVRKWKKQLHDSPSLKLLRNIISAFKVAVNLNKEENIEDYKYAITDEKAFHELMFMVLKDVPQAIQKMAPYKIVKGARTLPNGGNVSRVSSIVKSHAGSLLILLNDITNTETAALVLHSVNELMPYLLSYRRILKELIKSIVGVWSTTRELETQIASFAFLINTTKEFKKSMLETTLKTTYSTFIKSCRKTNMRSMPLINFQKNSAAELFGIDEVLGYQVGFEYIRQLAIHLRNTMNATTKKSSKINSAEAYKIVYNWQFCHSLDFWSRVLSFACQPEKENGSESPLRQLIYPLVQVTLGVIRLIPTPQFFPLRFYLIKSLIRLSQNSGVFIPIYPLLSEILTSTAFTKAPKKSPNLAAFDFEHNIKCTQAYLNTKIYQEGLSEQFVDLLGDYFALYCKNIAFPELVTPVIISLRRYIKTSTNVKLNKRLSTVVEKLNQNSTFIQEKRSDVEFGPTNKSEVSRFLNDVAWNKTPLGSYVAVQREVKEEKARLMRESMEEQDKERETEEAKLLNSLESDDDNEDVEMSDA

binding result: binds
B1: Rrp5 full length (natural protein, yeast, UniProt Q05022 1-1729, looked up)
chain: MVASTKRKRDEDFPLSREDSTKQPSTSSLVRNTEEVSFPRGGASALTPLELKQVANEAASDVLFGNESVKASEPASRPLKKKKTTKKSTSKDSEASSANSDEARAGLIEHVNFKTLKNGSSLLGQISAITKQDLCITFTDGISGYVNLTHISEEFTSILEDLDEDMDSDTDAADEKKSKVEDAEYESSDDEDEKLDKSNELPNLRRYFHIGQWLRCSVIKNTSLEPSTKKSKKKRIELTIEPSSVNIYADEDLVKSTSIQCAVKSIEDHGATLDVGLPGFTGFIAKKDFGNFEKLLPGAVFLGNITKKSDRSIVVNTDFSDKKNKITQISSIDAIIPGQIVDLLCESITKNGIAGKVFGLVSGVVNVSHLRTFSEEDLKHKFVIGSSIRCRIIACLENKSGDKVLILSNLPHILKLEDALRSTEGLDAFPIGYTFESCSIKGRDSEYLYLALDDDRLGKVHSSRVGEIENSENLSSRVLGYSPVDDIYQLSTDPKYLKLKYLRTNDIPIGELLPSCEITSVSSSGIELKIFNGQFKASVPPLHISDTRLVYPERKFKIGSKVKGRVISVNSRGNVHVTLKKSLVNIEDNELPLVSTYENAKNIKEKNEKTLATIQVFKPNGCIISFFGGLSGFLPNSEISEVFVKRPEEHLRLGQTVIVKLLDVDADRRRIIATCKVSNEQAAQQKDTIENIVPGRTIITVHVIEKTKDSVIVEIPDVGLRGVIYVGHLSDSRIEQNRAQLKKLRIGTELTGLVIDKDTRTRVFNMSLKSSLIKDAKKETLPLTYDDVKDLNKDVPMHAYIKSISDKGLFVAFNGKFIGLVLPSYAVDSRDIDISKAFYINQSVTVYLLRTDDKNQKFLLSLKAPKVKEEKKKVESNIEDPVDSSIKSWDDLSIGSIVKAKIKSVKKNQLNVILAANLHGRVDIAEVFDTYEEITDKKQPLSNYKKDDVIKVKIIGNHDVKSHKFLPITHKISKASVLELSMKPSELKSKEVHTKSLEEINIGQELTGFVNNSSGNHLWLTISPVLKARISLLDLADNDSNFSENIESVFPLGSALQVKVASIDREHGFVNAIGKSHVDINMSTIKVGDELPGRVLKIAEKYVLLDLGNKVTGISFITDALNDFSLTLKEAFEDKINNVIPTTVLSVDEQNKKIELSLRPATAKTRSIKSHEDLKQGEIVDGIVKNVNDKGIFVYLSRKVEAFVPVSKLSDSYLKEWKKFYKPMQYVLGKVVTCDEDSRISLTLRESEINGDLKVLKTYSDIKAGDVFEGTIKSVTDFGVFVKLDNTVNVTGLAHITEIADKKPEDLSALFGVGDRVKAIVLKTNPEKKQISLSLKASHFSKEAELASTTTTTTTVDQLEKEDEDEVMADAGFNDSDSESDIGDQNTEVADRKPETSSDGLSLSAGFDWTASILDQAQEEEESDQDQEDFTENKKHKHKRRKENVVQDKTIDINTRAPESVADFERLLIGNPNSSVVWMNYMAFQLQLSEIEKARELAERALKTINFREEAEKLNIWIAMLNLENTFGTEETLEEVFSRACQYMDSYTIHTKLLGIYEISEKFDKAAELFKATAKKFGGEKVSIWVSWGDFLISHNEEQEARTILGNALKALPKRNHIEVVRKFAQLEFAKGDPERGRSLFEGLVADAPKRIDLWNVYVDQEVKAKDKKKVEDLFERIITKKITRKQAKFFFNKWLQFEESEGDEKTIEYVKAKATEYVASHESQKADE
